# From the supplement of paper PMC11316812
# ± gives the standard deviation of the averaged measurements.
# Key:
# MCF7 = test: percentage of EdU-negative (G0-arrested) nuclei per well, 72 h; higher = more G0 arrest; conditions: reference: sequence is the full UniProt precursor, the tested protein was the secreted form or ectodomain
# hTERT-HMEC = test: as above; conditions: reference: sequence is the full UniProt precursor, the tested protein was the secreted form or ectodomain
# [1] = protein concentration 0.03125 µM
# [2] = protein concentration 0.3125 µM
# [3] = protein concentration 0.0225 µM
# [4] = protein concentration 0.027515 µM
# [5] = protein concentration 0.27515 µM
# [6] = protein concentration 0.0161125 µM
# [7] = protein concentration 0.161125 µM
# [8] = protein concentration 0.0215 µM
# 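Further: secreted proteins added to cultured cells, EdU pulse at the end, nuclei found by Hoechst imaging, EdU status from nuclear versus surrounding ring intensity ratio, PBS as neutral control.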
sequence,measurement,setting,value
MPWPLLLLLAVSGAQTTRPCFPGCQCEVETFGLFDSFSLTRVDCSGLGPHIMPVPIPLDTAHLDLSSNRLEMVNESVLAGPGYTTLAGLDLSHNLLTSISPTAFSRLRYLESLDLSHNGLTALPAESFTSSPLSDVNLSHNQLREVSVSAFTTHSQGRALHVDLSHNLIHRLVPHPTRAGLPAPTIQSLNLAWNRLHAVPNLRDLPLRYLSLDGNPLAVIGPGAFAGLGGLTHLSLASLQRLPELAPSGFRELPGLQVLDLSGNPKLNWAGAEVFSGLSSLQELDLSGTNLVPLPEALLLHLPALQSVSVGQDVRCRRLVREGTYPRRPGSSPKVALHCVDTRDSAARGPTIL [Q8WUA8],percentage of EdU-negative,MCF7; [1],28 ± 1.4%
same,percentage of EdU-negative,MCF7; [2],29.1 ± 0.81%
same,percentage of EdU-negative,hTERT-HMEC; [1],5.33 ± 0.84%
same,percentage of EdU-negative,hTERT-HMEC; [2],5.25 ± 0.93%
MQAARGGAGRPERPGRPGRGPERERERPPGAGAASPCAAPGLPAGGATIHPGSPSAWPPRARAALRLWLGCVCFALVQADSPSAPVNVTVRHLKANSAVVSWDVLEDEVVIGFAISQQKKDVRMLRFIQEVNTTTRSCALWDLEEDTEYIVHVQAISIQGQSPASEPVLFKTPREAEKMASKNKDEVTMKEMGRNQQLRTGEVLIIVVVLFMWAGVIALFCRQYDIIKDNEPNNNKEKTKSASETSTPEHQGGGLLRSKI [Q8NAU1],percentage of EdU-negative,MCF7; [3],27.08 ± 0.2%
same,percentage of EdU-negative,MCF7; protein concentration 0.225 µM,25.3 ± 1.4%
same,percentage of EdU-negative,hTERT-HMEC; [3],5.26 ± 1.1%
same,percentage of EdU-negative,hTERT-HMEC; protein concentration 0.225 µM,5.43 ± 0.82%
MQAAWLLGALVVPQLLGFGHGARGAEREWEGGWGGAQEEEREREALMLKHLQEALGLPAGRGDENPAGTVEGKEDWEMEEDQGEEEEEEATPTPSSGPSPSPTPEDIVTYILGRLAGLDAGLHQLHVRLHALDTRVVELTQGLRQLRNAAGDTRDAVQALQEAQGRAEREHGRLEGCLKGLRLGHKCFLLSRDFEAQAAAQARCTARGGSLAQPADRQQMEALTRYLRAALAPYNWPVWLGVHDRRAEGLYLFENGQRVSFFAWHRSPRPELGAQPSASPHPLSPDQPNGGTLENCVAQASDDGSWWDHDCQRRLYYVCEFPF [Q9Y240],percentage of EdU-negative,MCF7; [1],24.4 ± 0.81%
same,percentage of EdU-negative,MCF7; [2],27.6 ± 1.3%
same,percentage of EdU-negative,hTERT-HMEC; [1],6.19 ± 0.7%
same,percentage of EdU-negative,hTERT-HMEC; [2],6.64 ± 1.2%
MQALVLLLCIGALLGHSSCQNPASPPEEGSPDPDSTGALVEEEDPFFKVPVNKLAAAVSNFGYDLYRVRSSTSPTTNVLLSPLSVATALSALSLGAEQRTESIIHRALYYDLISSPDIHGTYKELLDTVTAPQKNLKSASRIVFEKKLRIKSSFVAPLEKSYGTRPRVLTGNPRLDLQEINNWVQAQMKGKLARSTKEIPDEISILLLGVAHFKGQWVTKFDSRKTSLEDFYLDEERTVRVPMMSDPKAVLRYGLDSDLSCKIAQLPLTGSMSIIFFLPLKVTQNLTLIEESLTSEFIHDIDRELKTVQAVLTVPKLKLSYEGEVTKSLQEMKLQSLFDSPDFSKITGKPIKLTQVEHRAGFEWNEDGAGTTPSPGLQPAHLTFPLDYHLNQPFIFVLRDTDTGALLFIGKILDPRGP,percentage of EdU-negative,MCF7; [4],26.5 ± 1.4%
same,percentage of EdU-negative,MCF7; [5],28 ± 0.47%
same,percentage of EdU-negative,hTERT-HMEC; [4],5.35 ± 0.62%
same,percentage of EdU-negative,hTERT-HMEC; [5],9.19 ± 1.1%
MQAPGRGPLGLRLMMPGRRGALREPGGCGSCLGVALALLLLLLPACCPVRAQNDTEPIVLEGKCLVVCDSSPSADGAVTSSLGISVRSGSAKVAFSATRSTNHEPSEMSNRTMTIYFDQVLVNIGNHFDLASSIFVAPRKGIYSFSFHVVKVYNRQTIQVSLMQNGYPVISAFAGDQDVTREAASNGVLLLMEREDKVHLKLERGNLMGGWKYSTFSGFLVFPL [Q8IUK8],percentage of EdU-negative,MCF7; [3],26.91 ± 0.25%
same,percentage of EdU-negative,MCF7; protein concentration 0.225 µM,26.76 ± 0.11%
same,percentage of EdU-negative,hTERT-HMEC; [3],4.67 ± 0.45%
same,percentage of EdU-negative,hTERT-HMEC; protein concentration 0.225 µM,5.29 ± 0.93%
MQAQQYQQQRRKFAAAFLAFIFILAAVDTAEAGKKEKPEKKVKKSDCGEWQWSVCVPTSGDCGLGTREGTRTGAECKQTMKTQRCKIPCNWKKQFGAECKYQFQAWGECDLNTALKTRTGSLKRALHNAECQKTVTISKPCGKLTKPKPQAESKKKKKEGKKQEKMLD,percentage of EdU-negative,MCF7; [6],25.8 ± 1.2%
same,percentage of EdU-negative,MCF7; [7],30.5 ± 1.6%
same,percentage of EdU-negative,hTERT-HMEC; [6],4.79 ± 0.99%
same,percentage of EdU-negative,hTERT-HMEC; [7],5.12 ± 0.3%
MQCLLLLPFLLLGTVSALHLENDAPHLESLETQADLGQDLDSSKEQERDLALTEEVIQAEGEEVKASACQDNFEDEEAMESDPAALDKDFQCPREEDIVEVQGSPRCKICRYLLVRTPKTFAEAQNVCSRCYGGNLVSIHDFNFNYRIQCCTSTVNQAQVWIGGNLRGWFLWKRFCWTDGSHWNFAYWSPGQPGNGQGSCVALCTKGGYWRRAQCDKQLPFVCSF [Q9Y2Y8],percentage of EdU-negative,MCF7; [8],28.7 ± 1.2%
same,percentage of EdU-negative,MCF7; protein concentration 0.215 µM,32.1 ± 2.4%
same,percentage of EdU-negative,hTERT-HMEC; [8],5.28 ± 1.6%
same,percentage of EdU-negative,hTERT-HMEC; protein concentration 0.215 µM,8.49 ± 1.7%
MQCRLPRGLAGALLTLLCMGLLCLRYHLNLSPQRVQGTPELSQPNPGPPKLQLHDVFIAVKTTRAFHRLRLELLLDTWVSRTREQTFVFTDSPDKGLQERLGSHLVVTNCSAEHSHPALSCKMAAEFDTFLASGLRWFCHVDDDNYVNPRALLQLLRAFPLARDVYVGRPSLNRPIHASEPQPHNRTRLVQFWFATGGAGFCINRKLALKMAPWASGSRFMDTSALIRLPDDCTMGYIIECKLGGRLQPSPLFHSHLETLQLLRTAQLPEQVTLSYGVFEGKLNVIKLQGPFSPEEDPSRFRSLHCLLYPDTPWCPQLGAR,percentage of EdU-negative,MCF7; [3],25.3 ± 2.3%
same,percentage of EdU-negative,MCF7; protein concentration 0.225 µM,29.9 ± 2.4%
same,percentage of EdU-negative,hTERT-HMEC; [3],5.18 ± 0.59%
same,percentage of EdU-negative,hTERT-HMEC; protein concentration 0.225 µM,11.6 ± 0.88%
MQCWQQPFLRFLQQPFFLATASLAGSSSSFNVLIPKRDEDGDGEGPGDVTAGVSRAAGSPSGWEAPWVQQPRCCRRATPVCCAGQGPPRSLQQGGSEVLLGQLCSPEPDWLPSSGPKVAKQVFQVAAELLQHPEHFVPSSVPEGCVHKPGSTCDGSLKGRAYPSCVPKRDPEHSREESHPLSG [Q6UXR6],percentage of EdU-negative,MCF7; [3],26.15 ± 0.12%
same,percentage of EdU-negative,MCF7; protein concentration 0.225 µM,26.1 ± 0.63%
same,percentage of EdU-negative,hTERT-HMEC; [3],4.87 ± 0.51%
same,percentage of EdU-negative,hTERT-HMEC; protein concentration 0.225 µM,4.95 ± 1%
